Positions count from the first letter of the chain named. Like-named read-outs stand apart in the source and are kept apart here.
B1: S7AB (antibody, V domains shown)
VH: QVHLQQSGPELVKPGASVKISCKASGYAFTNCWMNWVRQRPGKGLDWIGRIFPGNGHTNYSGKFKDKATLTEDKSSSTAYMQLSSLTSEDSAVYFCARDYSDYYFDYWGQGTTLTVSS
VL: DVQMTQTTSSLSASLGDRVTISCRASQDINTYLNWYQQKPDGTVKLLIYYTSRLHSGVPSRFSGSGSGTDYSLTISNLEQEDIATYFCQQGNTLPWTFGGGTKLEIK
notes: Parental mouse antibody; also called S7-10B5.1; mouse anti-human Siglec-7 antibody
B2: S7AB-H1 (antibody, V domains shown)
VH: QVQLVQSGAEVKKPGASVKVSCKASGYAFTNCWMNWVRQAPGQGLEWMGRIFPGNGHTNYAQKFQGRVTMTRDTSTSTVYMELSSLRSEDTAVYYCARDYSDYYFDYWGQGTLVTVSS
VL: DIQMTQSPSSLSASVGDRVTITCRASQDINTYLNWYQQKPGKAPKLLIYYTSRLHSGVPSRFSGSGSGTDFTLTISSLQPEDFATYYCQQGNTLPWTFGQGTKLEIK
B3: S7AB-H8.44 huIgG2 (antibody, V domains shown)
VH: B2 VH with N31A, C32A, M48I, N55L, V68A, M70L, R72E, V79A
VL: B2 VL with A25G, F71Y, T93I
B4: S7AB-H8.44 huIgG1 LALAPS (antibody, V domains shown)
VH: B2 VH with N31A, C32A, M48I, N55L, V68A, M70L, R72E, V79A
VL: B2 VL with A25G, F71Y, T93I
B5: S7AB-H8.44 huIgG1 (antibody, V domains shown)
VH: B2 VH with N31A, C32A, M48I, N55L, V68A, M70L, R72E, V79A
VL: B2 VL with A25G, F71Y, T93I
B6: S7AB-H8.44 huIgG1 SELF (antibody, V domains shown)
VH: B2 VH with N31A, C32A, M48I, N55L, V68A, M70L, R72E, V79A
VL: B2 VL with A25G, F71Y, T93I
B7: S7AB-H5 (antibody, V domains shown)
VH: B2 VH with M48I, R72E
VL: B2 VL with F71Y
B8: S7AB-H8.37 (antibody, V domains shown)
VH: B2 VH with N31M, C32A, M48I, N55Y, V68A, M70L, R72E, V79A
VL: B2 VL with A25G, F71Y, T93V
B9: S7AB-H8.36 (antibody, V domains shown)
VH: B2 VH with N31E, C32T, M48I, N55L, V68A, M70L, R72E, V79A
VL: B2 VL with A25G, F71Y, T93V
B10: S7AB-H2 (antibody, V domains shown)
VH: B2 VH
VL: B2 VL with F71Y
B11: S7AB-H3 (antibody, V domains shown)
VH: B2 VH
VL: B2 VL with I2V, F71Y
B12: S7AB-H8.35 (antibody, V domains shown)
VH: B2 VH with N31E, C32A, M48I, N55Y, V68A, M70L, R72E, V79A
VL: B2 VL with A25G, F71Y, N92G
B13: S7AB-H7 (antibody, V domains shown)
VH: B2 VH with V20I, M48I, V68A, M70L, R72E, V79A
VL: B2 VL
B14: S7AB-H8.42 (antibody, V domains shown)
VH: B2 VH with N31M, C32A, M48I, N55Y, V68A, M70L, R72E, V79A
VL: B2 VL with A25G, F71Y, T93I
B15: S7AB-H8.45 (antibody, V domains shown)
VH: B2 VH with N31E, C32A, M48I, N55Y, V68A, M70L, R72E, V79A
VL: B2 VL with A25G, F71Y, T93I
B16: S7AB-H8.38 (antibody, V domains shown)
VH: B2 VH with N31G, C32Y, M48I, N55L, V68A, M70L, R72E, V79A
VL: B2 VL with A25G, F71Y, T93V
B17: S7AB-H8.41 (antibody, V domains shown)
VH: B2 VH with N31E, C32T, M48I, N55L, V68A, M70L, R72E, V79A
VL: B2 VL with A25G, F71Y, T93I
B18: S7AB-H10 (antibody, V domains shown)
VH: B2 VH with V20I, M48I, V68A, M70L, R72E, V79A, V114L
VL: B2 VL
B19: S7AB-H8.39 (antibody, V domains shown)
VH: B2 VH with N31A, C32A, M48I, N55L, V68A, M70L, R72E, V79A
VL: B2 VL with A25G, F71Y, T93V
B20: S7AB-H6 (antibody, V domains shown)
VH: B2 VH with M48I, R72E
VL: B2 VL with I2V, F71Y
B21: S7AB-H8.44 (antibody, V domains shown)
VH: B2 VH with N31A, C32A, M48I, N55L, V68A, M70L, R72E, V79A
VL: B2 VL with A25G, F71Y, T93I
B22: S7AB-H8.43 (antibody, V domains shown)
VH: B2 VH with N31G, C32Y, M48I, N55L, V68A, M70L, R72E, V79A
VL: B2 VL with A25G, F71Y, T93I
notes: also called S7AB-H.43
B23: S7AB-H8.40 (antibody, V domains shown)
VH: B2 VH with N31E, C32A, M48I, N55Y, V68A, M70L, R72E, V79A
VL: B2 VL with A25G, F71Y, T93V
B24: S7AB-H4 (antibody, V domains shown)
VH: B2 VH with M48I, R72E
VL: B2 VL

Columns and labels:
[1] = biological target: T1, histidine-tagged human Siglec-7 (NovoProtein) (human, UniProt Q9Y286 19-353); assay: BLI (ForteBio), antibody captured
T1 construct: Bought protein; also called recombinant human Siglec-7; recombinant Siglec-7; not shown: histidine tag
Experimental: In this assay, the humanized antibodies were compared directly to S7AB. Briefly, the antibodies were captured on anti-human or anti-mouse IgG Fc Biosensors (Pall ForteBio). Varying concentrations (0-100 nM) of histidine-tagged human Siglec-7 (NovoProtein) were then bound to the captured anti-Siglec-7 surface (200 s association time, 900 s dissociation time). Multi-concentration kinetic analysis was performed using a 1:1 interaction model to extract association and dissociation rate constants (kₐ and kd, respectively) for each antibody. Apparent affinity constants (KD) were calculated from the ratio kd/kₐ.

[2] = biological target: T2, human Siglec-7 on primary human monocyte-derived dendritic cells (human, UniProt Q9Y286 19-467); assay: flow cytometry, primary human dendritic cells
T2 construct: Endogenous Siglec-7 on dendritic cells differentiated from monocytes of healthy human donors
Experimental: The 12 humanized antibodies of S7AB were evaluated for binding to primary dendritic cells by flow cytometry. Monocytes were isolated from blood from healthy human donors using the RosetteSep™ monocyte isolation antibody cocktail (StemCell Technologies). The isolated monocytes were differentiated into dendritic cells with 100 ng/mL GM-CSF and 100 ng/mL IL-4 (Peprotech). Dendritic cells were incubated with dilutions of the anti-Siglec-7 antibodies for 30 minutes on ice in the dark, followed by a 30-minute incubation with a fluorescently-conjugated anti-human IgG secondary antibody. Cells were washed twice in FACS buffer (PBS+2% FBS, 2 mM EDTA), and flow cytometry was performed on a BD FACS Canto. Data were analyzed using FlowJo software (Ashland, Oreg.).

[3] = biological target: T2, human Siglec-7 on primary human …; assay: cell-based or functional assay
[4] = biological target: T1, histidine-tagged human Siglec-7 …; assay: BLI, antibody captured
How it was run: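 Antibodies captured on anti-human or anti-mouse IgG Fc biosensors; His-tagged human Siglec-7 flowed at 0–100 nM (200 s association, 900 s dissociation). ka and kd from 1:1 multi-concentration fit; apparent KD = kd/ka.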

[5] = biological target: T2, human Siglec-7 on primary human …; assay: cell-based or functional assay; remark: listed apart in the source

T2 sequence (Q9Y286 19-467): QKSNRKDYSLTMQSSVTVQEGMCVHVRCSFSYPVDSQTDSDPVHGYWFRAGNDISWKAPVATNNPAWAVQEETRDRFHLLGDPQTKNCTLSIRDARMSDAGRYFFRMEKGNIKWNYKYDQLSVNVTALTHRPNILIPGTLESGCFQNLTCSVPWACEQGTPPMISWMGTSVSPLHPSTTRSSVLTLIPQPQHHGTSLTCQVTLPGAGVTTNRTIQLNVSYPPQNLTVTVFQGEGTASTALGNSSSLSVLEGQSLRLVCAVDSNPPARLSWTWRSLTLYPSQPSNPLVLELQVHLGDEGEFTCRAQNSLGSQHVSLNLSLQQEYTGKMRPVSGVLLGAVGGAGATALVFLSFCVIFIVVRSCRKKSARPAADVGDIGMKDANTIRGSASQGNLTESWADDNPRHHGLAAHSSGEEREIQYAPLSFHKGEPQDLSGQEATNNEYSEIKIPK
T1 sequence (Q9Y286 19-353 limits assumed): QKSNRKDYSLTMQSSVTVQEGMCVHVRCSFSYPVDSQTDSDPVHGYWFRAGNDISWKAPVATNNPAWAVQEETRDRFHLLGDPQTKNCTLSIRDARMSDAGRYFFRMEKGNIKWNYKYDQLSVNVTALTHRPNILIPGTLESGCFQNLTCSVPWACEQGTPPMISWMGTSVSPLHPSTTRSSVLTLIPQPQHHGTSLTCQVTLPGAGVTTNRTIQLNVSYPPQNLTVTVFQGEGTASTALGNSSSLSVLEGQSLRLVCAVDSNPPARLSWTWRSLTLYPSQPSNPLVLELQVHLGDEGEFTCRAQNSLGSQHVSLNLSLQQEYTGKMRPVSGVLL

EC50 [2] | Kd [4] | fold improvement over S7AB-H8 [4] | koff [4] | kon [4] | Fold increase in potency compared to AB-H8 [5] | Fold increase in potency compared to Chimeric Ab [5] | Maximal downregulation (% Siglec-7 remaining) [5] | Receptor downregulation, (EC50) (pM) [5] | other results | Binder
 |  |  |  |  |  |  |  |  | Kd [1]: 1.24 nM; koff [1]: 0.000242 s⁻¹; kon [1]: 195000 M⁻¹ s⁻¹ | B1
4.6 nM |  |  |  |  |  |  |  |  |  | B2
 |  |  |  |  |  |  |  |  | Maximal downregulation (% Siglec-7 remaining) [3]: 2.8%; Receptor downregulation, (pM, EC50) [3]: 43.8 pM | B3
 |  |  |  |  |  |  |  |  | Maximal downregulation (% Siglec-7 remaining) [3]: 2.8%; Receptor downregulation, (pM, EC50) [3]: 67.3 pM | B4
 |  |  |  |  |  |  |  |  | Maximal downregulation (% Siglec-7 remaining) [3]: 1%; Receptor downregulation, (pM, EC50) [3]: 33.6 pM | B5
 |  |  |  |  |  |  |  |  | Maximal downregulation (% Siglec-7 remaining) [3]: < 0.1%; Receptor downregulation, (pM, EC50) [3]: 9.1 pM | B6
1.1 nM |  |  |  |  |  |  |  |  |  | B7
 | 0.135 nM | 7.8 fold | 2.5e-05 s⁻¹ | 186000 M⁻¹ s⁻¹ | 4.8 fold | 14.3 fold | 3.4% | 71.4 pM |  | B8
 | 0.605 nM | 1.7 fold | 9.81e-05 s⁻¹ | 162000 M⁻¹ s⁻¹ | 2.7 fold | 8.2 fold | 11.4% | 125 pM |  | B9
1.8 nM |  |  |  |  |  |  |  |  |  | B10
1.6 nM |  |  |  |  |  |  |  |  |  | B11
 | 0.607 nM | 1.7 fold | 6.57e-05 s⁻¹ | 108000 M⁻¹ s⁻¹ | 1.6 fold | 5 fold | 9.3% | 206 pM |  | B12
3.3 nM |  |  |  |  |  |  |  |  |  | B13
 | 0.126 nM | 8.3 fold | 2.42e-05 s⁻¹ | 191000 M⁻¹ s⁻¹ | 5.4 fold | 16.4 fold | 3.3% | 62.6 pM |  | B14
 | 0.444 nM | 2.4 fold | 7.55e-05 s⁻¹ | 170000 M⁻¹ s⁻¹ | 3.4 fold | 10.4 fold | 6.9% | 98.6 pM |  | B15
 | 0.324 nM | 3.2 fold | 7.4e-05 s⁻¹ | 229000 M⁻¹ s⁻¹ | 4.8 fold | 14.5 fold | 17.1% | 70.4 pM |  | B16
 | 0.531 nM | 2 fold | 9.12e-05 s⁻¹ | 172000 M⁻¹ s⁻¹ | 3.2 fold | 9.5 fold | 9.6% | 108 pM |  | B17
6.3 nM |  |  |  |  |  |  |  |  |  | B18
 | 0.215 nM | 4.9 fold | 3.56e-05 s⁻¹ | 166000 M⁻¹ s⁻¹ | 6 fold | 18 fold | 4.3% | 56.8 pM |  | B19
1.6 nM |  |  |  |  |  |  |  |  |  | B20
 | 0.198 nM | 5.3 fold | 3.71e-05 s⁻¹ | 188000 M⁻¹ s⁻¹ | 5.6 fold | 16.7 fold | 3.6% | 61.2 pM |  | B21
 | 0.256 nM | 4.1 fold | 5.84e-05 s⁻¹ | 228000 M⁻¹ s⁻¹ | 10.2 fold | 30.8 fold | 17.1% | 33.2 pM |  | B22
 | 0.425 nM | 2.5 fold | 6.29e-05 s⁻¹ | 148000 M⁻¹ s⁻¹ | 2.9 fold | 8.9 fold | 9.4% | 115 pM |  | B23
3.2 nM |  |  |  |  |  |  |  |  |  | B24
